The results in this text go back to article PMC9645730, “Cryo-EM structure of the human sodium-chloride cotransporter NCC” (Science Advances, 2022).

This data set concerns the molecule itself. The experiment in a line: cryo-EM structure; single-particle analysis of purified NCC at 9 mg/ml in 25 mM tris (pH 8.0), 150 mM NaCl, 0.02% GDN; TMD map with C2 symmetry, overall map with C1 symmetry.

B1: human sodium-chloride cotransporter NCC (natural protein, UniProt P55017-1 1-1021, looked up)
chain: MAELPTTETPGDATLCSGRFTISTLLSSDEPSPPAAYDSSHPSHLTHSSTFCMRTFGYNTIDVVPTYEHYANSTQPGEPRKVRPTLADLHSFLKEGRHLHALAFDSRPSHEMTDGLVEGEAGTSSEKNPEEPVRFGWVKGVMIRCMLNIWGVILYLRLPWITAQAGIVLTWIIILLSVTVTSITGLSISAISTNGKVKSGGTYFLISRSLGPELGGSIGLIFAFANAVGVAMHTVGFAETVRDLLQEYGAPIVDPINDIRIIGVVSVTVLLAISLAGMEWESKAQVLFFLVIMVSFANYLVGTLIPPSEDKASKGFFSYRADIFVQNLVPDWRGPDGTFFGMFSIFFPSATGILAGANISGDLKDPAIAIPKGTLMAIFWTTISYLAISATIGSCVVRDASGVLNDTVTPGWGACEGLACSYGWNFTECTQQHSCHYGLINYYQTMSMVSGFAPLITAGIFGATLSSALACLVSAAKVFQCLCEDQLYPLIGFFGKGYGKNKEPVRGYLLAYAIAVAFIIIAELNTIAPIISNFFLCSYALINFSCFHASITNSPGWRPSFQYYNKWAALFGAIISVVIMFLLTWWAALIAIGVVLFLLLYVIYKKPEVNWGSSVQAGSYNLALSYSVGLNEVEDHIKNYRPQCLVLTGPPNFRPALVDFVGTFTRNLSLMICGHVLIGPHKQRMPELQLIANGHTKWLNKRKIKAFYSDVIAEDLRRGVQILMQAAGLGRMKPNILVVGFKKNWQSAHPATVEDYIGILHDAFDFNYGVCVMRMREGLNVSKMMQAHINPVFDPAEDGKEASARVDPKALVKEEQATTIFQSEQGKKTIDIYWLFDDGGLTLLIPYLLGRKRRWSKCKIRVFVGGQINRMDQERKAIISLLSKFRLGFHEVHILPDINQNPRAEHTKRFEDMIAPFRLNDGFKDEATVNEMRRDCPWKISDEEITKNRVKSLRQVRLNEIVLDYSRDAALIVITLPIGRKGKCPSSLYMAWLETLSQDLRPPVILIRGNQENVLTFYCQ
modifications: N-acetylglucosamine on Asn406 and Asn426; disulfide bonds Cys416-Cys421 and Cys430-Cys436
notes: human NCC (SLC12A3), cloned from HEK293 cDNA; an isoform that, compared with UniProt P55017-1, carries the naturally occurring A264G and lacks Gln95; residue numbers count on P55017-1; The atomic model holds residues 137-605 (TMD) and 616-1020 (CTD, docked as a rigid body from a SWISS-MODEL prediction); No cleavage of the tags is told; also called Na+-Cl- cotransporter; SLC12A3; not shown: FLAG, …
As a reminder, the stoichiometry N is the number of molecules, sites or subunits per partner or assembly. In the case of B1, the “stoichiometry N” value amounted to 2.
